Patent publication US20200095296A1, “USE OF PEPTIDES AS BIOMARKERS IN THE DIAGNOSIS, CONFIRMATION AND TREATMENT OF A NEUROLOGICAL DISORDER AND TCR AND/OR HLA IMMUNOPROFILING IN NEURODEGENERATIVE DISEASE” (THE TRUSTEES OF COLUMBIA UNIVERSITY IN THE CITY OF NEW YORK, priority 2017, published 2020)

Experiments:
Assay in all cases: competition with radiolabeled peptide, purified HLA
[1] = target: HLA DRB3*01:01 (human)
[2] = target: HLA DRB1*03:01 (human)
[3] = target: HLA DRB1*11:01 (human)
[4] = target: HLA DRB1*04:05 (human)
[5] = target: HLA DRB1*09:01 (human)
[6] = target: HLA DRB1*04:01 (human)

IC50 [1] [µM] | IC50 [4] [µM] | IC50 [6] [µM] | Substance | further results
– | – | 4.96 | alpha-syn peptide aa126…aa140 phosphorylated at S129 | –
9.18 | – | 9.13 | alpha-syn peptide aa121…aa135 phosphorylated at S129 | –

The next lines start with the substance.

Substance | IC50 [1] [µM] | IC50 [4] [µM] | IC50 [6] [µM] | further results
alpha-syn peptide aa116…aa130 | 5.67 | – | – | IC50 [2]: 6.96 µM; IC50 [3]: 1.57 µM
alpha-syn peptide aa121…aa135 | – | 1.94 | – | IC50 [5]: 4.6 µM
alpha-syn peptide aa116…aa130 phosphorylated at S129 | – | 3.6 | – | –
